Reference: patent US20030203415A1 (published 2003)
Several values for one entry are separate records, joined by “and”; a condition that tells them apart may be missing. Equal values may be shown once. Values belong to the binder of their own block, whether it stands above or below them. Ends that are not written are not given here. fluorescein = fluorescein label attached through NHS-fluorescein to the ε-amino side group of the C-terminal lysine

Key:
H6NA3 [1] = target: T1, H6NA3 (UniProt P06731 35-144; P06731 499-590, limits assumed); experiment: fluorescence anisotropy, direct binding
T1 construct: domain: N domain;domain: A3 domain; recombinant truncated target
T1 sequence: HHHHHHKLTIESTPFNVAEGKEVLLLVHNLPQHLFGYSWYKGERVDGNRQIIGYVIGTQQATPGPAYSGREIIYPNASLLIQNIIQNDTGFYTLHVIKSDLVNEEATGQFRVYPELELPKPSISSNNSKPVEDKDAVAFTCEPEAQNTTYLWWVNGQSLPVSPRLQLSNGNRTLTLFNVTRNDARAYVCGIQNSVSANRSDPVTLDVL

H6NA3 [2] = target: T1, H6NA3; experiment: fluorescence anisotropy, direct binding; remark: listed apart in the source
Experimental: (§1) Dissociation constants were determined using fluorescence anisotropy, through direct binding measurements and competition experiments. In direct binding assays, the concentration of the fluorescein-labeled peptide is held constant and the concentration of H6NA3 is varied. In the competition experiment, the concentration of the fluorescein-labeled peptide and the H6NA3 target are held constant and the concentration of a competitor (cT84.66, unlabeled) is varied. The change in anisotropy is fit to the appropriate equation via nonlinear regression to obtain the apparent Kd.
Dissociation constants were determined using fluorescence anisotropy, through direct binding measurements (see Example 6).

H6NA3 [3] = target: T1, H6NA3; experiment: fluorescence anisotropy, direct binding; remark: listed apart in the source
Experimental: (§2) Dissociation constants were determined using fluorescence anisotropy, through direct binding measurements to either NA-3 or CEA in PBS with 0.01% TWEEN 20. In direct binding assays, the concentration of the fluorescein-labeled peptide is held constant and the concentration of NA3 is varied. In the competition experiment, the concentration of the fluorescein-labeled peptide and the NA3 target are held constant and the concentration of competitor peptide (from Isolate 12-H12) is varied. The change in anisotropy is fit to the appropriate equation via nonlinear regression to obtain the apparent Kd. […] Replicate analyses were run for certain binders and are reported to confirm accuracy and precision of measurements. KD standard error values are calculated from the nonlinear regression (SIGMAPLOT, SPSS Science, Chicago, Ill.).

[4] = target: T2, carcinoembryonic antigen (CEA) (UniProt P06731 35-685, limits assumed); experiment: fluorescence anisotropy, direct binding
T2 sequence (looked up): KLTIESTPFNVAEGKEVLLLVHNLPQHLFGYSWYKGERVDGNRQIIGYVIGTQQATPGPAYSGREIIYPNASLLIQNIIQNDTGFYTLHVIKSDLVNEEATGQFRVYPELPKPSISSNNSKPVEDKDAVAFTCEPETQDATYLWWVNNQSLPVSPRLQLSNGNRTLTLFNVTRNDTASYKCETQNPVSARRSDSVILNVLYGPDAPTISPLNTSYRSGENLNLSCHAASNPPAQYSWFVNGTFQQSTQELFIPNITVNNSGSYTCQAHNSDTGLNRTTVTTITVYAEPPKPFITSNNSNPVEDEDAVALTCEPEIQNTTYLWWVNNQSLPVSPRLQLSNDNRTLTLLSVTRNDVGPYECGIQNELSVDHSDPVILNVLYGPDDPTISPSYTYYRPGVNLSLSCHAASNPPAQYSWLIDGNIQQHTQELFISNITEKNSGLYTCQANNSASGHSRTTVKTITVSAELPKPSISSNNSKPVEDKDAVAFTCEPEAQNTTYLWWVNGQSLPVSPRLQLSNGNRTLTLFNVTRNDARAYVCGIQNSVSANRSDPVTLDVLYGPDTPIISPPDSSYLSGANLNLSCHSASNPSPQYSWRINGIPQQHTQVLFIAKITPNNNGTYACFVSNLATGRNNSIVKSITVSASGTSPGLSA
Experimental: as §2

H6NA3 [5] = target: T1, H6NA3; experiment: fluorescence anisotropy, competition with peptide from Isolate 12-H12
Experimental: as §2

H6NA3 [6] = target: T1, H6NA3; experiment: fluorescence anisotropy, competition with peptide from Isolate 12-H12 (replicate)
Experimental: as §2

H6NA3 [7] = target: T1, H6NA3; experiment: fluorescence anisotropy, direct binding (replicate)
Experimental: as §2

H6NA3 [8] = target: T1, H6NA3; experiment: fluorescence anisotropy, direct binding; remark: listed apart in the source
H6NA3 [9] = target: T1, H6NA3; experiment: fluorescence anisotropy, direct binding; remark: listed apart in the source
Experimental: as §1

H6NA3 [10] = target: T1, H6NA3; experiment: fluorescence anisotropy, competition with unlabeled cT84.66
Experimental: as §1

H6NA3 [11] = target: T1, H6NA3; experiment: fluorescence anisotropy
Experimental: as §1

[12] = target: T3, human serum albumin (HSA) (human, UniProt P02768 25-609); experiment: phage ELISA on immobilized HSA
T3 construct: control target
T3 sequence (P02768 25-609 limits assumed): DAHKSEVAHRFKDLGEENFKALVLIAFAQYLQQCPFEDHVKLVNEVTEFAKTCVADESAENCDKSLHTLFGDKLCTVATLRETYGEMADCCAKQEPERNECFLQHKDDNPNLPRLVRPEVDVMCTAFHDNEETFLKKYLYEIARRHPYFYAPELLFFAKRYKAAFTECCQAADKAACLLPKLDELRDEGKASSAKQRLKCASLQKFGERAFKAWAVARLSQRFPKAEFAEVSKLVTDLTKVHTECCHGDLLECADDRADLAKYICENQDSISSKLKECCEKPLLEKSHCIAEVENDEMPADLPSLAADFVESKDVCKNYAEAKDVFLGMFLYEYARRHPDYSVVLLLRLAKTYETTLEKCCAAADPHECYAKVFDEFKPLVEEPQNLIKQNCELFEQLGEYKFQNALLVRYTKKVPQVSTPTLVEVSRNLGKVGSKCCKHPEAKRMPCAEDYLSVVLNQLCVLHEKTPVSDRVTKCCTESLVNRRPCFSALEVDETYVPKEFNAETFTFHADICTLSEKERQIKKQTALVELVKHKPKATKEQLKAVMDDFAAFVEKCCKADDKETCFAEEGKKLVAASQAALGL

B1: 304A-14-A12 synthetic peptide (peptide, part only; not given: C-terminal lysine extension, part only)
peptide, part: DWVCNLFKNQWFCDTL
modifications: not fully specified (C-terminus, bridges); cysteine pairing not given here; also: fluorescein on ε-amino of C-terminal lysine, no C-terminal K in given chain
Kd (H6NA3 [1]): 640 nM

B2: Hybrid H12/A12 (peptide, part only; not given: C-terminal lysine extension, part only)
peptide, part: DWVCEYFKNQWFCDTL
modifications: not fully specified (C-terminus, bridges); cysteine pairing not given here; also: fluorescein on ε-amino of C-terminal lysine, no C-terminal K in given chain
Kd (H6NA3 [1]): 2800 nM

B6: P-E01 (peptide)
peptide: SNWDCMFGAEGWACSPWAPGGEGGGSK(fluorescein)-NH2
modifications: not fully specified (bridges); printed as SNWDCMFGAEGWACSPWAPGGEGGGSK-CONH2; cysteine pairing not given here; also: fluorescein on C-terminal Lys ε-amino in labelled aliquots
notes: synthetic 27-mer
Kd (H6NA3 [9]): 6900 nM
Kd (H6NA3 [11]): 7000 nM
Kd (H6NA3 [10]): 5300 nM

B7: 315A-17-B01 synthetic peptide (peptide)
peptide: DWVCEWLKMQWACNILAPGGEGGGSK(fluorescein)-NH2
modifications: not fully specified (bridges); cysteine pairing not given here; also: fluorescein on C-terminal Lys ε-amino in labelled aliquots
notes: synthetic
Kd (H6NA3 [3]): 950 nM
Kd (H6NA3 [5]): 900 nM
Kd (H6NA3 [6]): 1200 nM

B8: 315A-17-B12 synthetic peptide (peptide)
peptide: DWVCEWLKPQWYCNSLAPGGEGGGSK(fluorescein)-NH2
modifications: not fully specified (bridges); cysteine pairing not given here; also: fluorescein on C-terminal Lys ε-amino in labelled aliquots
notes: synthetic
Kd (H6NA3 [3]): 1800 nM
binding result [4]: no binding
Kd (H6NA3 [5]): 650 nM

B9: 315A-17-G08 synthetic peptide (peptide)
peptide: DWVCEFIKSQWFCNVLAPGGEGGGSK(fluorescein)-NH2
modifications: not fully specified (bridges); cysteine pairing not given here; also: fluorescein on C-terminal Lys ε-amino in labelled aliquots
notes: synthetic
Kd (H6NA3 [3]): 270 nM
Kd [4]: 1600 nM
Kd (H6NA3 [5]): 160 nM
Kd (H6NA3 [6]): 160 nM

B10: P-B09 (peptide)
peptide: SDWVCELTTGGYVCQPLAPGGEGGGSK(fluorescein)-NH2
modifications: not fully specified (bridges); printed as SDWVCELTTGGYVCQPLAPGGEGGGSK-CONH2; cysteine pairing not given here; also: fluorescein on C-terminal Lys ε-amino in labelled aliquots
notes: synthetic 27-mer
Kd (H6NA3 [9]): 6000 nM
Kd (H6NA3 [10]): 1000 nM

B12: 315A-18-E02 synthetic peptide (peptide)
peptide: DWVCEFFKDQWFCNILAPGGEGGGSK(fluorescein)-NH2
modifications: not fully specified (bridges); cysteine pairing not given here; also: fluorescein on C-terminal Lys ε-amino in labelled aliquots
notes: synthetic
Kd (H6NA3 [3]): 380 nM
Kd [4]: 2600 nM
Kd (H6NA3 [5]): 310 nM
Kd (H6NA3 [6]): 290 nM and 220 nM and 140 nM

Binder: NWDCMFGAEGWACSPW (not fully specified (bridges); cysteine pairing not given here) [TN10/9-E01]
binding result [12]: no binding

Binder: NWFCEMIGRQWGCVPS [TN10/9-F11]
binding result [12]: no binding

Binder: NWRCKLFPRYPYCSSW (also called TN10/9 Isolate G01) [G01]
binding result [12]: no binding

Binder: RYCEFFPWSLHCGRP (also called TN10/9 Isolate B10) [B10]
binding result [12]: no binding

Next, values leading:

Kd (H6NA3 [2]): 240 nM
Kd (H6NA3 [3]): 300 nM
Kd [4]: 3700 nM
Kd (H6NA3 [5]): 340 nM
Kd (H6NA3 [6]): 240 nM
Kd (H6NA3 [7]): 220 nM
fold increase in affinity compared to the Isolate G08 peptide (H6NA3 [8]): 8 fold
B3: 304A-12-H12 synthetic peptide (peptide)
peptide: DWVCEYFKNQWFCNVLAPGGEGGGSK-NH2
modifications: not fully specified (residue 26, bridges); cysteine pairing not given here; also: fluorescein only on labelled aliquots
notes: synthetic; also called DX306

Kd (H6NA3 [9]): 1900 nM
B4: P-G08 (peptide)
peptide: SNWVCNLFKNQWFCNSYAPGGEGGGSK(fluorescein)-NH2
modifications: not fully specified (bridges); printed as SNWVCNLFKNQWFCNSYAPGGEGGGSK-CONH2; cysteine pairing not given here; also: fluorescein on C-terminal Lys ε-amino in labelled aliquots
notes: synthetic 27-mer; also called Isolate G08 peptide

Kd (H6NA3 [9]): 5900 nM
Kd (H6NA3 [10]): 3600 nM
B5: P-A07 (peptide)
peptide: SDWVCENKKDQWTCNLLAPGGEGGGSK(fluorescein)-NH2
modifications: not fully specified (bridges); printed as SDWVCENKKDQWTCNLLAPGGEGGGSK-CONH2; cysteine pairing not given here; also: fluorescein on C-terminal Lys ε-amino in labelled aliquots
notes: synthetic 27-mer

Kd (H6NA3 [3]): 870 nM
Kd (H6NA3 [5]): 230 nM
Kd (H6NA3 [6]): 490 nM and 170 nM
B11: 315A-18-E01 synthetic peptide (peptide)
peptide: DWVCEIVKNQWICNPLAPGGEGGGSK(fluorescein)-NH2
modifications: not fully specified (bridges); cysteine pairing not given here; also: fluorescein on C-terminal Lys ε-amino in labelled aliquots
notes: synthetic

binding result [12]: no binding
Binder: NWVCNLFKNQWFCNSY (also called TN10/9 Isolate G08) [FX-G08]

binding result [12]: no binding
Binder: DWVCENKKDQWTCNLL (not fully specified (bridges); cysteine pairing not given here, also called TN10/9 Isolate A07) [AB-A07]

binding result [12]: no binding
Binder: DWVCNFDQGLAHCFPS (not fully specified (bridges); cysteine pairing not given here) [TN10/9-D04]
